{"source": "paper PMC10702477", "key": {"[1]": {"substrate": "O=c1cc(-c2ccccc2)c2c(O)cc(O)cc2o1", "test": "RP-HPLC product/acceptor peak ratio, Michaelis-Menten fit", "type": "biochemical, Arabidopsis thaliana", "details": "500 μM UDP-Glc, 50 mM TBT buffer at optimal pH, 293 K; product 7-O-Glc; 20.0 °C"}, "[2]": {"substrate": "Cc1cc(=O)oc2cc(O)cc(O)c12", "test": "RP-HPLC product/acceptor peak ratio, Michaelis-Menten fit", "type": "biochemical, Arabidopsis thaliana", "details": "500 μM UDP-Glc, 50 mM TBT buffer at optimal pH, 293 K; product 5-O-Glc; 20.0 °C"}}, "data": [{"protein": "AtUGT78D2 (Arabidopsis thaliana) (protein) MTKPSDPTRDSHVAVLAFPFGTHAAPLLTVTRRLASASPSTVFSFFNTAQSNSSLFSSGDEADRPANIRVYDIADGVPEGYVFSGRPQEAIELFLQAAPENFRREIAKAETEVGTEVKCLMTDAFFWFAADMATEINASWIAFWTAGANSLSAHLYTDLIRETIGVKEVGERMEETIGVISGMEKIRVKDTPEGVVFGNLDSVFSKMLHQMGLALPRATAVFINSFEDLDPTLTNNLRSRFKRYLNIGPLGLLSSTLQQLVQDPHGCLAWMEKRSSGSVAYISFGTVMTPPPGELAAIAEGLESSKVPFVWSLKEKSLVQLPKGFLDRTREQGIVVPWAPQVELLKHEATGVFVTHCGWNSVLESVSGGVPMICRPFFGDQRLNGRAVEVVWEIGMTIINGVFTKDGFEKCLDKVLVQDDGKKMKCNAKKLKELAYEAVSSKGRSSENFRGLLDAVVNII", "values": [{"measurement": "Km", "setting": "[1]", "value": "28.9 ± 4.8", "unit": "µM"}, {"measurement": "kcat", "setting": "[1]", "value": "0.132 ± 0.00667", "unit": "s⁻¹"}, {"measurement": "Km", "setting": "[2]", "value": "34.4 ± 4.3", "unit": "µM"}, {"measurement": "kcat", "setting": "[2]", "value": "0.932 ± 0.04", "unit": "s⁻¹"}]}]}
